These results are taken from article PMC10881741, “Structural modifications toward improved lead-203/lead-212 peptide-based image-guided alpha-particle radiopharmaceutical therapies for neuroendocrine tumors” (European Journal of Nuclear Medicine and Molecular Imaging, 2023).

Read-outs that look alike come from different tables or passages of the source. Bounds are passed on as bounds.

Series [1] is described as follows: Stability in water and human serum (radio-HPLC). Format: in vitro ADME. The conditions noted are these: ^203Pb-labeled, 37 °C, up to 24 h. The source says: New peptides were designed and synthesized using standard fluorenylmethyloxycarbonyl (Fmoc)-based solid phase peptide synthesis. The peptides were developed under two basic strategies: (a) a click cyclization approach to substitute the disulfide bond of TOC with a triazole link, which potentially improves PK and in vivo stability; and (b) Pb-specific structural optimization based on TOC by incorporating the new chelator composition and various sizes of PEG linkers (Fig. 1 and Table 1). […] The radiolabeling and purification process for the preparation of ^203Pb/^212Pb-labeled peptides followed the methods outlined in a previously published study. […] The stability of the most promising RPDC, [^203Pb]Pb-PSC-PEG2-TOC, was evaluated in water and normal human serum up to 24 h of incubation at 37 °C using the radio-HPLC system. Furthermore, PSC-PEG2-TOC was assessed for a radiolabeling yield with clinically relevant ^203Pb activity (1.8–3.6 GBq) to assess changes in performance with increases in molar activity (MBq/nmol; Supplementary Material).
PSC-PEG2-TOC was characterized for stability in water and human serum. […] The penetrate by centrifugation (serum samples) or the samples in water were analyzed by a radio-HPLC system (Agilent 1200 Series connected with an IN/US β-RAM Model 4 radio-detector) to monitor the degree of peptide degradation.

The target in another series is T1, SSTR2 (Rattus norvegicus, UniProt P30680).
T1 construct: host or cells: AR42J rat pancreatic acinar cells
T1 sequence (P30680 whole entry): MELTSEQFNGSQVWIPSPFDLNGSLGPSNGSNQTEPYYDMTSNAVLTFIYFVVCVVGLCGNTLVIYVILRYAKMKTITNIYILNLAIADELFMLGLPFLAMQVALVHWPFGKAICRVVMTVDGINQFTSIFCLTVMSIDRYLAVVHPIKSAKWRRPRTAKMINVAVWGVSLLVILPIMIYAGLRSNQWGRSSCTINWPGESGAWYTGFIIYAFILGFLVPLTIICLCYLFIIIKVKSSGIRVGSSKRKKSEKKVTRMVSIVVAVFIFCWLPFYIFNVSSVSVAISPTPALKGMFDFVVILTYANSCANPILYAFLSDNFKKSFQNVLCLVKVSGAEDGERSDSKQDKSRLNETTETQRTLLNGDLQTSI
In words: In vitro competitive binding assay ([^125I]I-TOC displacement in AR42J cells).

Series [2] in a line: In vivo biodistribution of ^203Pb-labeled peptides. Particulars: female, athymic nu/nu, mouse, intravenous, 37 kBq, total radioactivity; for tissue uptake at 3 h: 3 h post-administration; for tissue uptake at 24 h: 24 h post-administration; for tissue uptake at 1 h: 1 h post-administration. On the set-up: species or system mice. As for the experimental part:
AR42J cells (5.0 × 10^6 cells/animal) were implanted subcutaneously on the left shoulder of female athymic nu/nu mice. […] Extra groups of mice were co-administered 37 kBq of ^203Pb-PSC-PEG2-TOC with DL-lysine (400 mg/kg) to determine the effect of amino acid on renal uptake of the radiopharmaceutical. Mice (n=3 per time point) were euthanized at 1, 3, and 24 h post-administration, and tumors and organs/tissues of interest were excised and weighed. The radioactivities of the samples were measured using the gamma counter.

The subject of a further series is midgut NETs. On the set-up: method as in PMID 28076709, PMID 28428192. Particulars: patients with midgut NETs ref 5, 6; cited from earlier work.
[3] abbreviates: large intestine, read-out: Large intestine.
Setting [4] is: small intestine, read-out: Small intestine.

Procedure for SSTR2: SSTR2-positive AR42J rat pancreatic acinar cells were purchased from the American Type Culture Collection (ATCC; CRL-1492) and were cultured in RPMI 1640 medium, supplemented with 10% fetal bovine serum (FBS), 2 mM glutamine, and antibiotics (0.1 mg/mL streptomycin and 100 IU penicillin) at 37 °C under a humidified condition (5% CO2). The cells were plated into poly-D-lysine-coated 24-well plates at a density of 1.0 × 10^5 cells per well. […] Cells were then washed twice with ice-cold PBS and lysed with 0.5 N NaOH. The radioactivities of the harvested samples were measured using an automated gamma counter (PerkinElmer Cobra II; PerkinElmer, Freemont, CA). IC50 was determined using GraphPad Prism V8.0.

As to `C[C@@H](O)[C@@H]1NC(=O)[C@H](CCCCN)NC(=O)[C@@H](Cc2c[nH]c3ccccc23)NC(=O)[C@H](Cc2ccc(O)cc2)NC(=O)[C@@H](NC(=O)[C@@H](Cc2ccccc2)NC(=O)CCOCCOCCNC(=O)CN2CCN(CC(=O)O)CCN(CC(N)=O)CCN(CC(=O)O)CC2)CSSC[C@@H](C(=O)N[C@H](CO)[C@@H](C)O)NC1=O` [PSC-PEG2-TOC, PSC-PEG2-D-Phe-cyclo[Cys-Tyr-D-Trp-Lys-Thr-Cys]-Thr-OH], the “Radiochemical and metabolic stability” value in series [1] is “robust radiochemical stability”. The “Improvement in affinity vs. DOTATOC (factor)” value on SSTR2 is over 2.

Consider `C[C@@H](O)[C@@H]1NC(=O)[C@H](CCCCN)NC(=O)[C@@H](Cc2c[nH]c3ccccc23)NC(=O)[C@H](Cc2ccc(O)cc2)NC(=O)[C@@H](NC(=O)[C@@H](Cc2ccccc2)NC(=O)CN2CCN(CC(=O)O)CCN(CC(=O)O)CCN(CC(=O)O)CC2)CSSC[C@@H](C(=O)N[C@H](CO)[C@@H](C)O)NC1=O` [[^203Pb]Pb-DOTATOC, metal not drawn, reference compound], for which the tissue uptake at 3 h in series [2] (blood, read-out: Blood) is 0.02 %ID/g; in series [2] (brain, read-out: Brain), 0.01 %ID/g; in series [2] (heart, read-out: Heart), 0.07 ± 0.05 %ID/g; in series [2] (kidneys, read-out: Kidneys), 14.6 ± 2.34 %ID/g; in series [2] (setting [3]) it was 1.11 ± 0.74 %ID/g; in series [2] (liver, read-out: Liver), 0.16 ± 0.02 %ID/g. Moreover, the tissue uptake at 3 h in series [2] (lung, read-out: Lung) came out at 0.59 ± 0.23 %ID/g; in series [2] (muscle, read-out: Muscle), 0.04 ± 0.01 %ID/g; in series [2] (setting [4]) it was 1.78 ± 2.19 %ID/g; in series [2] (tumor, read-out: Tumor), 4.47 ± 0.75 %ID/g. Moreover, the tissue uptake at 24 h in series [2] (blood, read-out: Blood) was 0.01 %ID/g; in series [2] (brain, read-out: Brain) it was 0.01 %ID/g; in series [2] (heart, read-out: Heart), 0.02 ± 0.01 %ID/g; in series [2] (kidneys, read-out: Kidneys), 7.6 %ID/g; in series [2] (setting [3]), 0.17 ± 0.04 %ID/g; in series [2] (liver, read-out: Liver), 0.08 ± 0.01 %ID/g. For the same compound, the tissue uptake at 24 h in series [2] (lung, read-out: Lung) worked out at 0.27 ± 0.04 %ID/g; in series [2] (muscle, read-out: Muscle), 0.02 %ID/g; in series [2] (setting [4]), 0.08 ± 0.06 %ID/g; in series [2] (spleen, read-out: Spleen) it was 0.1 ± 0.01 %ID/g; in series [2] (tumor, read-out: Tumor) it was 2.44 ± 0.19 %ID/g. The tissue uptake at 1 h in series [2] (brain, read-out: Brain) amounted to 0.03 ± 0.01 %ID/g; in series [2] (kidneys, read-out: Kidneys), 12.2 %ID/g; in series [2] (setting [3]), 0.32 ± 0.12 %ID/g; in series [2] (liver, read-out: Liver) it was 0.28 ± 0.05 %ID/g; in series [2] (lung, read-out: Lung), 0.91 ± 0.41 %ID/g; in series [2] (muscle, read-out: Muscle), 0.1 ± 0.03 %ID/g. Besides, the tissue uptake at 1 h was 1.91 ± 0.8 %ID/g in series [2] (setting [4]); 0.27 ± 0.05 %ID/g in series [2] (spleen, read-out: Spleen); 4.6 ± 0.18 %ID/g in series [2] (tumor, read-out: Tumor).

As for [^177Lu]Lu-DOTATATE, in the series on midgut NETs, the Complete response rate is given as 1% and the Objective responses was 18–30%.
